Biological target: the molecule itself
Assay: crystal structure

B1: Mycobacterium tuberculosis isoprenyl diphosphate synthase Rv2173 (enzyme)
chain: LESTSLYKKAGSAAALFRFKKEPFTMAGAITDQLRRYLHGRRRAAAHMGSDYDGLIADLEDFVLGGGKRLRPLFAYWGWHAVASREPDPDVLLLFSALELLHAWALVHDDLIDRSATRRGRPTAQLRYAALHRDRDWRGSPDQFGMSAAILLGDLAQVWADDIVSKVCQSALAPDAQRRVHRVWADIRNEVLGGQYLDIVAEASAAESIESAMNVATLKTACYTVSRPLQLGTAAAADRSDVAAIFEHFGADLGVAFQLRDDVLGVFGDPAVTGKPSGDDLKSGKRTVLVAEAVELADRSDPLAAKLLRTSIGTRLTDAQVRELRTVIEAVGARAAAESRIAALTQRALATLASAPINATAKAGLSELAMMAANRSA
notes: also called tagged Rv2173; not shown: His6, N-terminal, kept
stoichiometry N: 2

From paper PMC12035560, “Structures of Mycobacterium tuberculosis isoprenyl diphosphate synthase Rv2173 in substrate-bound forms” (Acta Crystallographica Section F: Structural Biology …, 2025)
